# Biological target: autophosphorylated EGF-receptor (from lysates of EGF-stimulated A431 cells) (human, UniProt P00533, autophosphorylated on tyrosine (sites not given))
# Assay: binding of GST-PTB to the activated EGFR, normalized to wild type
row,Relative Binding,Molecule
1,1,GST fusion protein of the ShcC PTB domain (wild type) (other) LGPGVTYVVKYLGCIEVLRSMRSLDFSTRTQVTREAISRVCERVPGAKGALKKRKPPSKMLSSILGKSNLQFAGMSISLTISTASLNLRTPDSKQIIANHHMRSISFASGGDPDTTDYVAYVAKDPVNRRACHILECCDGLAQDVIGSIGQAFELRFKQYL
2,1,GST-ShcC PTB domain mutant M130I/S132V (other) LGPGVTYVVKYLGCIEVLRSMRSLDFSTRTQVTREAISRVCERVPGAKGALKKRKPPSKMLSSILGKSNLQFAGMSISLTISTASLNLRTPDSKQIIANHHIRVISFASGGDPDTTDYVAYVAKDPVNRRACHILECCDGLAQDVIGSIGQAFELRFKQYL
3,0.12,GST-ShcC PTB domain mutant A136T/C166R (other) LGPGVTYVVKYLGCIEVLRSMRSLDFSTRTQVTREAISRVCERVPGAKGALKKRKPPSKMLSSILGKSNLQFAGMSISLTISTASLNLRTPDSKQIIANHHMRSISFTSGGDPDTTDYVAYVAKDPVNRRACHILECRDGLAQDVIGSIGQAFELRFKQYL
4,1,GST-ShcC PTB domain mutant V36M (other) LGPGVTYMVKYLGCIEVLRSMRSLDFSTRTQVTREAISRVCERVPGAKGALKKRKPPSKMLSSILGKSNLQFAGMSISLTISTASLNLRTPDSKQIIANHHMRSISFASGGDPDTTDYVAYVAKDPVNRRACHILECCDGLAQDVIGSIGQAFELRFKQYL
5,0.16,GST-ShcC PTB domain mutant A136T (other) LGPGVTYVVKYLGCIEVLRSMRSLDFSTRTQVTREAISRVCERVPGAKGALKKRKPPSKMLSSILGKSNLQFAGMSISLTISTASLNLRTPDSKQIIANHHMRSISFTSGGDPDTTDYVAYVAKDPVNRRACHILECCDGLAQDVIGSIGQAFELRFKQYL
6,1,GST-ShcC PTB domain mutant G30R/H128Q (other) LRPGVTYVVKYLGCIEVLRSMRSLDFSTRTQVTREAISRVCERVPGAKGALKKRKPPSKMLSSILGKSNLQFAGMSISLTISTASLNLRTPDSKQIIANQHMRSISFASGGDPDTTDYVAYVAKDPVNRRACHILECCDGLAQDVIGSIGQAFELRFKQYL
7,0.087,GST-ShcC PTB domain mutant E63G (other) LGPGVTYVVKYLGCIEVLRSMRSLDFSTRTQVTRGAISRVCERVPGAKGALKKRKPPSKMLSSILGKSNLQFAGMSISLTISTASLNLRTPDSKQIIANHHMRSISFASGGDPDTTDYVAYVAKDPVNRRACHILECCDGLAQDVIGSIGQAFELRFKQYL
8,0.073,GST-ShcC PTB domain mutant G139E/D140N (other) LGPGVTYVVKYLGCIEVLRSMRSLDFSTRTQVTREAISRVCERVPGAKGALKKRKPPSKMLSSILGKSNLQFAGMSISLTISTASLNLRTPDSKQIIANHHMRSISFASGENPDTTDYVAYVAKDPVNRRACHILECCDGLAQDVIGSIGQAFELRFKQYL
9,0.81,GST-ShcC PTB domain mutant T118S (other) LGPGVTYVVKYLGCIEVLRSMRSLDFSTRTQVTREAISRVCERVPGAKGALKKRKPPSKMLSSILGKSNLQFAGMSISLTISTASLNLRSPDSKQIIANHHMRSISFASGGDPDTTDYVAYVAKDPVNRRACHILECCDGLAQDVIGSIGQAFELRFKQYL
10,1.2,GST-ShcC PTB domain mutant T58A (other) LGPGVTYVVKYLGCIEVLRSMRSLDFSTRAQVTREAISRVCERVPGAKGALKKRKPPSKMLSSILGKSNLQFAGMSISLTISTASLNLRTPDSKQIIANHHMRSISFASGGDPDTTDYVAYVAKDPVNRRACHILECCDGLAQDVIGSIGQAFELRFKQYL
11,1.2,GST-ShcC PTB domain mutant S86C (other) LGPGVTYVVKYLGCIEVLRSMRSLDFSTRTQVTREAISRVCERVPGAKGALKKRKPPCKMLSSILGKSNLQFAGMSISLTISTASLNLRTPDSKQIIANHHMRSISFASGGDPDTTDYVAYVAKDPVNRRACHILECCDGLAQDVIGSIGQAFELRFKQYL
12,0.14,GST-ShcC PTB domain mutant G32R/A136T/C166R (other) LGPRVTYVVKYLGCIEVLRSMRSLDFSTRTQVTREAISRVCERVPGAKGALKKRKPPSKMLSSILGKSNLQFAGMSISLTISTASLNLRTPDSKQIIANHHMRSISFTSGGDPDTTDYVAYVAKDPVNRRACHILECRDGLAQDVIGSIGQAFELRFKQYL
13,0.93,GST-ShcC PTB domain mutant G32R (other) LGPRVTYVVKYLGCIEVLRSMRSLDFSTRTQVTREAISRVCERVPGAKGALKKRKPPSKMLSSILGKSNLQFAGMSISLTISTASLNLRTPDSKQIIANHHMRSISFASGGDPDTTDYVAYVAKDPVNRRACHILECCDGLAQDVIGSIGQAFELRFKQYL
14,1.2,GST-ShcC PTB domain mutant T111I (other) LGPGVTYVVKYLGCIEVLRSMRSLDFSTRTQVTREAISRVCERVPGAKGALKKRKPPSKMLSSILGKSNLQFAGMSISLTISIASLNLRTPDSKQIIANHHMRSISFASGGDPDTTDYVAYVAKDPVNRRACHILECCDGLAQDVIGSIGQAFELRFKQYL

# Biological target: EGFR in living cells (293T cells stimulated with EGF; NIH/3T3 cells transformed by overexpression of the EGFR)
# Assay: not given
row,EGF-induced MAPK activity (Gal4-Elk-1 / Gal4-Luc luciferase in 293T cells) [%],Molecule
1,50,isolated ShcC SH2 domain expressed in cells (HA epitope-tagged SH2 domain)

# From patent US6077686, “Shc proteins” (Mount Sinai Hospital Corporation, dated 2000)
